Legend:
[1] = target: Frizzled-7 (microscale thermophoresis) (UniProt O75084); experiment: MST
[2] = target: Frizzled-10 (microscale thermophoresis) (UniProt Q9ULW2); experiment: MST
Chain of Frizzled-10 (microscale thermophoresis) (Q9ULW2 21-581): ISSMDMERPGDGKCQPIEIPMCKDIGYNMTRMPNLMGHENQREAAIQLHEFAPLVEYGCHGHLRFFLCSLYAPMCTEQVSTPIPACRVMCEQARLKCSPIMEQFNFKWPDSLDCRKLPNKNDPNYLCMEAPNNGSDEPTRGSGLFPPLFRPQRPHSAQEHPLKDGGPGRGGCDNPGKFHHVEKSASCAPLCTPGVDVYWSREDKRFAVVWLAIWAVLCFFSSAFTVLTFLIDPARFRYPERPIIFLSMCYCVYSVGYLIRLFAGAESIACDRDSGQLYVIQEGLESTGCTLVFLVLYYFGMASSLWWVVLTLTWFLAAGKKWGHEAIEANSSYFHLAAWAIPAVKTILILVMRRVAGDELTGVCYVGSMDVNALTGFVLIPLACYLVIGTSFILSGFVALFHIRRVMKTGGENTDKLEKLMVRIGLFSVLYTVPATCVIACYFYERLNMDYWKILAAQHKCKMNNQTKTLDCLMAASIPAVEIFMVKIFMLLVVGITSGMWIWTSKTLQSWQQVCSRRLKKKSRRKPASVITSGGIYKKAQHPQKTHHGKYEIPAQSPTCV

Chain of Human OLFM4 protein (Q6UX06 21-510): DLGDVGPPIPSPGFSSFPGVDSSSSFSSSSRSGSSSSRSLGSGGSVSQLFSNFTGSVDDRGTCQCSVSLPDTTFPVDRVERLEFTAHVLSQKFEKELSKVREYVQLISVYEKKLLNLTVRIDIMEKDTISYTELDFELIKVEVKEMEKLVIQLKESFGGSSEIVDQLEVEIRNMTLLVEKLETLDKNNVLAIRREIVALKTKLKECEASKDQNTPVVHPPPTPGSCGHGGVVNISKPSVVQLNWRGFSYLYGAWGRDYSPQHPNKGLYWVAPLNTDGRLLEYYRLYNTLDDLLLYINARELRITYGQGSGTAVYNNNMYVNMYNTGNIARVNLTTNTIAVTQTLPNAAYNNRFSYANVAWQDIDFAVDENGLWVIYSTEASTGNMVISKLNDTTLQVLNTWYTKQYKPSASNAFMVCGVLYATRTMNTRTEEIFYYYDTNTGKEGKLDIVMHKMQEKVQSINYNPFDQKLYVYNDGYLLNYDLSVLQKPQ

Human OLFM4 protein (from UniProt Q6UX06 21-510) (natural protein)
Kd [1]: 2.5 µM | Kd [2]: 10 µM

— article PMC5057043
